Where “and” joins values, the source holds several entries; their conditions need not be identical. Identical values can stand only once.
What was measured:
[1] = clinical test, cited from earlier work
[2] = Body weight of ZDF rats with nonfunctional Leptin receptor treated with SynLeptin polypeptides; type: in vivo, rat; settings: 12-week-old ZDF rats; injected two times every two weeks into hypoderm; after about 30 days; saline control 8.5% increase
Protocol: FIG. 2 illustrates weigh loss when SynLeptin-1 or 2 polypeptide was injected two times every two weeks into the hypoderm of 12-week-old ZFD rats with non-functional Leptin receptor.
(§1) 4 white rabbits with 1.2 kg body weight were divided into a control group and an experimental group having two rabbits, respectively. The purified SynLeptin-1 or -2 protein (500-700 μg or saline was mixed with Adjuvant 2 ml (Sigma), and then injected into 4 different parts of the rabbit hypoderm. After 2 weeks, an equivalent amount of the protein-Adjuvant mixture was injected, and then third injection was performed after 2 weeks. Thereafter, body weight loss was measured after 10 days. The result was as follows. The body weight of the experimental group treated with SynLeptin-1 was 1.8 kg and 2.08 kg, respectively (average 1.94 kg), while the body weight of the control group was 2.5 kg and 2.45 kg, respectively (average 2.48 kg). […] Also we treated the ZDF rats with nonfunctional Leptin receptor gene with SynLeptin-1 or -2 polypeptides for 30 days (FIG. 2).

adipose tissue = assay: Autopsy and pathological examination of experimental rabbits; type: in vivo, rabbit; settings: polypeptide-Adjuvant mixture injected three times into hypoderm every two weeks, versus saline-Adjuvant
Protocol: In FIG. 3A, arrows indicate distribution of adipose tissue in various organs in the test rabbit that SynLeptin-2 polypeptide-Adjuvant mixture was injected three times into the hypoderm every two weeks. In FIG. 3B, arrows indicate distribution of adipose tissue in various organs injected with saline-Adjuvant mixture three times into the hypoderm every two weeks.
We analyzed the reasons for the decrease in body weight by autopsy and pathological examinations. […] When the rabbits were sacrificed and autopsy was carried out, no pathological abnormali in their organs was observed. However, remarkable reduction of fat mass not only in abdominal and subcutaneous adipose tissues but also tissues surrounding various organs was evident.

[3] = Body weight of white rabbits after subcutaneous injection of protein-Adjuvant mixture; type: in vivo, rabbit; settings: 10 days after third injection
Protocol: as §1

Leptin: 16 kDa ob polypeptide hormone synthesized in adipose tissue, regulating body weight
weight response upon Leptin treatment (other obese people) ([1]; other obese people): did not lost weight | body weight lost ([1]; some obese people): 7.1 kg

B1: SynLeptin-2: Tat polypeptide of 86 amino acids from N-terminus of Tat, expressed from pGEX4T-3-SynLeptin-2 (protein)
chain: MEPVDPRLEPWKHPGSQPKTACTNCYCKKCCFHCQVCFMTKALGISYGRKKRRQRRRAHQNSQTHQASLSKQPTSQSRGDPTGPKE
modifications: 86 amino acid Tat mutant
notes: Tat polypeptide of 86 amino acids from N-terminus of Tat, expressed from pGEX4T-3-SynLeptin-2
weight loss (decrease of body weight) [2]: 4.3% | fat / adipose tissue at autopsy (adipose tissue): markedly reduced fat in various tissues including adipose tissue

B2: SynLeptin-1: Tat polypeptide fragment, 71 (b9: 72) amino acids from N-terminus of Tat, expressed from pGEX4T-3-SynLeptin-1 (protein)
chain: MEPVNPSLEPWKHPGSQPKTACTNCYCAKCCFHCQVCFITKALGISYGRAKRRQRRRPPQGSQTHQVSLSK
modifications: 71 amino acid Tat mutant
body weight of individual rabbit of the experimental group ([3]; rabbits, starting body weight 1.2 kg, control 2.5 and 2.45 kg): 1.8 kg and 2.08 kg | average body weight of the experimental group ([3]; two rabbits, control average 2.48 kg): 1.94 kg | weight increase [2]: 3.5%
